In experiment [1] the target is T1, human IGFBP5 (human, UniProt P24593 21-272).
T1 construct: Bought protein; in BLI it was in solution; also called hIGFBP-5
Nature of the experiment: ELISA, scFv, secondary screening. As to the method:
(§1) At the end of the discovery process, each selection output was screened for antigen-specific antibodies and the binding characteristics of monoclonal antibody clones was analysed. For this purpose, 3072 single colonies were used for scFv antibody production. […] 192 of those ELISA positive clones were selected for a secondary screening. For that purpose, a second batch of scFv were produced and tested on a broader panel of antigens: Streptavidin+biotinylated human IGFBP5, Streptavidin+biotinylated murine IGFBP5, Streptavidin, BSA, Human IGFBP1, Human IGFBP2, Human IGFBP3, Human IGFBP4, Human IGFBP5 and Human IGFBP6. […] Binding to human IGFBP1, human IGFBP2, human IGFBP3, human IGFBP4 and human IGFBP6 was not detected. […] The scFv DNA sequence was amplified by PCR and cloned into YUMAB's mammalian scFv-Fc expression vector, resulting in a genetic fusion of the scFv with a human IgG4 Fc. Bacterial clones with a correctly cloned scFv gene were used for isolation of transfection grade DNA. The DNA was used for the transient transfection of HEK cells which produced and secreted the antibody into the culture medium. The antibodies were purified by affinity chromatography (Protein A) and re-buffered in PBS. The protein concentration was determined by UV/VIS spectrometry and purity was checked by Coomassie staining. 13 of the 15 antibodies could be successfully produced in the scFv-Fc format.
In general terms: In an ELISA, binding on a coated surface is turned into a signal by an enzyme label.

The target of experiment [2] is T2, mouse IGFBP5 (mouse, UniProt Q07079 20-271).
T2 construct: Bought protein; in solution in BLI; also called mIGFBP-5; murine IGFBP5
Nature of the experiment: ELISA, scFv, secondary screening. The method, then: as §1

The target in another experiment is T3, human IGFBP1 (human, UniProt P08833 26-259).
T3 construct: Bought protein
T3 sequence (looked up): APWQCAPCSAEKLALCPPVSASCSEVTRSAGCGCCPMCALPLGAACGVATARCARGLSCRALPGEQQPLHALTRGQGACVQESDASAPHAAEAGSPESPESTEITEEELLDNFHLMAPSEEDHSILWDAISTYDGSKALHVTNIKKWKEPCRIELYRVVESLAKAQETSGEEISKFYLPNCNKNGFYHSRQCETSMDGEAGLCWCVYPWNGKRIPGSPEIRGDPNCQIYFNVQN
In words: ELISA, scFv, secondary screening. As to the method:
as §1

In the next experiment the target is T4, human IGFBP2 (human, UniProt P18065 37-325, limits assumed).
T4 construct: Bought protein
T4 sequence (looked up): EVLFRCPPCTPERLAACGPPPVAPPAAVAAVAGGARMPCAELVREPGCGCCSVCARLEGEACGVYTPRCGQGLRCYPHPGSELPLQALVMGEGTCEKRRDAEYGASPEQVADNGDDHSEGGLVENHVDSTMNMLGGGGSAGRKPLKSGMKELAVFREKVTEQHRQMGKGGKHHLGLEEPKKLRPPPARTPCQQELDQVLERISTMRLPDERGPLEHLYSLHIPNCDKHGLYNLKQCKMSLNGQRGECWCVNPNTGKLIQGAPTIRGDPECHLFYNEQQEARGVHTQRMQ
In words: ELISA, scFv, secondary screening. As to the method:
as §1

The target of the next experiment is T5, human IGFBP3 (human, UniProt P17936 28-291).
T5 construct: Bought protein
Nature of the experiment: ELISA, scFv, secondary screening. As to the method: as §1

The target of another experiment is T6, human IGFBP4 (human, UniProt P22692 22-258).
T6 construct: Bought protein
T6 sequence (looked up): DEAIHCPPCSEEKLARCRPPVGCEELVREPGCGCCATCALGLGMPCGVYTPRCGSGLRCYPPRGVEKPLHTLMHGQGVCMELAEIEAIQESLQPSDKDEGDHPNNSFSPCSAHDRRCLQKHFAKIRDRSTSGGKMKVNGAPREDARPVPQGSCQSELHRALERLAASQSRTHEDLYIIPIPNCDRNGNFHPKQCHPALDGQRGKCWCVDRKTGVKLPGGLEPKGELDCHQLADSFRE
Nature of the experiment: ELISA, scFv, secondary screening. As to the method:
as §1

A further experiment concerns the target T7, human IGFBP6 (human, UniProt P24592 28-240, limits assumed).
T7 construct: Bought protein
T7 sequence (looked up): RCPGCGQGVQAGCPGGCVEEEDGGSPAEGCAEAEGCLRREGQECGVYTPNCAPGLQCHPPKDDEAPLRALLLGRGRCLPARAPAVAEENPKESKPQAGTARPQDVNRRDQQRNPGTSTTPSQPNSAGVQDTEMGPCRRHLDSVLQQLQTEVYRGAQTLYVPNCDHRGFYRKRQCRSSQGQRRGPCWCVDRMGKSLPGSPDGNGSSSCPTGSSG
Nature of the experiment: ELISA, scFv, secondary screening. As to the method:
as §1

Experiment [3] deals with T1, human IGFBP5. Nature of the experiment: BLI (Octet/BLItz), mAb captured via Fc on AHC biosensor, antigen in solution. As to the method:
(§2) To assess the binding affinity in more detail, affinity measurements were performed using Biomolecular Interaction Analysis performed by an Octet platform (BLItz System), which is a Biolayer Interferometry (BLI) platform. To establish the assay, the target monoclonal antibody (mAb, 2 identical antigen binding moieties, 2 μg/ml in 1% BSA containing 0.05% Tween 20) was immobilized via Fc on the via AHC biosensor and the interaction with the antigen human IGFBP5 (R&D, cat n° 875-B5) and mouse IGFBP5 (R&D, cat n° 578-B5) at different concentration were measured.

In experiment [4] the target is T2, mouse IGFBP5. The experiment is described as above. As to the method:
as §2

T2 sequence (Q07079 20-271 limits assumed): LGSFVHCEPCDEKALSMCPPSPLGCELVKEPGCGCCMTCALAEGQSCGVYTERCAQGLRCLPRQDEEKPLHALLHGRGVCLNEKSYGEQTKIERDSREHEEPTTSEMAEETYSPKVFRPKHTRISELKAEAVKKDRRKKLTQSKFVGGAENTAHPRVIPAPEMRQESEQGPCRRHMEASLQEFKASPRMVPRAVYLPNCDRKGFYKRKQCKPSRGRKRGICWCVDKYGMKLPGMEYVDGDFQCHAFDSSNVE
T1 sequence (P24593 21-272 limits assumed): as the sequence (Q07079 20-271 limits assumed) above, with G87R, T90V, V116I, V157I, P159S, F183L, A245T counted along it
T5 sequence (P17936 28-291 limits assumed): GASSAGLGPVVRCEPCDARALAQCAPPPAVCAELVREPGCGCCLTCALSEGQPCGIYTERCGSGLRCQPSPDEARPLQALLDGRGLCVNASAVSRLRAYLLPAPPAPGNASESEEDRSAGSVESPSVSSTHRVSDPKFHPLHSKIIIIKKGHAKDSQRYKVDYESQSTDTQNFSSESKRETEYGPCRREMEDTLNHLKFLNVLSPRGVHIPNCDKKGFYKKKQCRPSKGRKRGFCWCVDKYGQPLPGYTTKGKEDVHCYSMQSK

B1: G01 scFv (scFv, V domains shown)
VH: QVQLVQSGAEVKKPGSSVKVSCKASGGTFSSYAISWVRQAPGQGLEWMGGIIPIFGTANYAQKFQGRVTITADESTSTAYMELSSLRSEDTAVYYCASITEGAFDYWGQGTLVTVSS
VL: AIQLTQSPSTLSASVGDRVTITCRASRTVGSWLAWYQQKPGKAPKLLIYDASNLQSGVPSRFSGSGSGTEFTLTISSLQPDDLSTYYCQQYNSSPYTFGQGTKVEIK
notes: scFv as screened by ELISA
As to B1, the binding result in the experiment with human IGFBP5 [1] is “binds”; in the experiment with mouse IGFBP5 [2] it was “binds”; in the experiment with human IGFBP1, “no binding”; in the experiment with human IGFBP2 it was “no binding”; with human IGFBP3, “no binding”; with human IGFBP4 it was “no binding”. The binding result in the experiment with human IGFBP6 is “no binding”.

B2: A09 scFv (scFv, V domains shown)
VH: QVQLVESGAEVKKPGASVKVSCKASGYTFTSYGISWVRQAPGQGLEWMGWISAYNGNTNYAQKLQGRVTMTTDTSTSTAYMELRSLRSDDTAVYYCAREWELLGGLDYWGQGTLVTVSS
VL: QSALTQPASVSGSPGQSITISCTGTSSDVGGYNYVSWYQQHPGKAPKLMIYEVSNRPSGVSNRFSGSKSGNTASLTISGLQAEDEADYYCSSYTSSSTVVFGGGTKLTVL
On to B2, for which the binding result with human IGFBP5 [1] is recorded as “binds”; with mouse IGFBP5 [2], “binds”; with human IGFBP1, “no binding”; with human IGFBP2, “no binding”; in the experiment with human IGFBP3 it was “no binding”; with human IGFBP4 it was “no binding”. In addition, the binding result with human IGFBP6 is reported as “no binding”.

B3: B09 full length mAb (antibody, V domains shown)
VH: QVQLVQSGAEVKKPGASVKVSCKASGYTFTSYGISWVRQAPGQGLEWMGWISAYNGNTNYAQKLQGRVTMTTDTSTSTAYMELRSLRSDDTAVYYCARDLAVGTHGDYWGQGTLVTVSS
VL: QSALTQPASVSGSPGQSITISCTGTSSDVGGYNYVSWYQQHPGKAPKLMIYEVSNRPSGVSNRFSGSKSGNTASLTISGLQAEDEADYYCSSYTSSSTLEVVFGGGTKLTVL
notes: also called anti-IGFBP5 mAb B09
By Kd is commonly meant the equilibrium constant for the complex coming apart. Higher therefore signals lower affinity. Regarding B3, the Kd with human IGFBP5 [3] and with mouse IGFBP5 [4] was 0.1 nM throughout.

B4: E05 scFv (scFv, V domains shown)
VH: EVQLVESGGGLVQPGGSLKLSCAASGFTFSGYGMNWVRQAPGKGLEWVSYVGSSSSTIYYADSVKGRFTISRDNANNSLYLQMNSLRAEDTAVYYCARGLGGNWGQGTMVTVSS
VL: QPGLTQPPSASGAPGQRVTISCSGSRSNIGSNYVHWYQQLPGTAPKLIIYRNDQRPSGVPARFSASKSGTSASLAISGLRSEDEADYYCAAWDDGLSVLFGGGTKLTVL
notes: scFv as screened by ELISA
B4: the binding result with human IGFBP5 [1] is reported as “binds”; with mouse IGFBP5 [2] it was “binds”; in the experiment with human IGFBP1 it was “no binding”; in the experiment with human IGFBP2, “no binding”; with human IGFBP3, “no binding”; with human IGFBP4, “no binding”. Also, the binding result with human IGFBP6 is “no binding”.

B5: F04 scFv (scFv, V domains shown)
VH: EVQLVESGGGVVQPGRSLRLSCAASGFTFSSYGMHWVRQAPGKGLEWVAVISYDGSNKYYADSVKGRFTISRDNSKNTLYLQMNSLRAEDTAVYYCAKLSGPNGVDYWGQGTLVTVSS
VL: SSELTQDPSVSVALGQTVTITCQGDSVRKYYTNWYQQKPGQAPILVLYGKNYRPSGIPDRFSGSTSGDTAYLTITGAQAEDAADYYCHSRDTSDIHLNVFGTGTKVTVL
notes: scFv as screened by ELISA
In the case of B5, the binding result in the experiment with human IGFBP5 [1] is reported as “binds”; in the experiment with mouse IGFBP5 [2] it was “binds”; with human IGFBP1, “no binding”; with human IGFBP2 it was “no binding”; with human IGFBP3, “no binding”; in the experiment with human IGFBP4, “no binding”. Also, the binding result with human IGFBP6 was “no binding”.

(Values after patent US12715909 (ENTHERA S R L, dated 2026).)
